{"source": "patent EP4552657A1", "about": "“RADIOPHARMACEUTICAL COMPLEXES AND COMBINATIONS” (priority 2023, dated 2025)", "molecules": {"B1": {"name": "Rovalpituzumab-DOTA (conjugate, chains of the INN, looked up)", "VH": "QVQLVQSGAEVKKPGASVKVSCKASGYTFTNYGMNWVRQAPGQGLEWMGWINTYTGEPTYADDFKGRVTMTTDTSTSTAYMELRSLRSDDTAVYYCARIGDSSPSDYWGQGTLVTVSS", "VL": "EIVMTQSPATLSVSPGERATLSCKASQSVSNDVVWYQQKPGQAPRLLIYYASNRYTGIPARFSGSGSGTEFTLTISSLQSEDFAVYYCQQDYTSPWTFGQGTKLEIK", "modifications": "DOTA chelator conjugate"}, "B2": {"name": "Ac-225-macropa-Rovalpituzumab (conjugate, chains of the INN, looked up)", "VH": "QVQLVQSGAEVKKPGASVKVSCKASGYTFTNYGMNWVRQAPGQGLEWMGWINTYTGEPTYADDFKGRVTMTTDTSTSTAYMELRSLRSDDTAVYYCARIGDSSPSDYWGQGTLVTVSS", "VL": "EIVMTQSPATLSVSPGERATLSCKASQSVSNDVVWYQQKPGQAPRLLIYYASNRYTGIPARFSGSGSGTEFTLTISSLQSEDFAVYYCQQDYTSPWTFGQGTKLEIK", "modifications": "macropa chelator, actinium-225"}}, "key": {"[1]": {"molecular_target": "T1, human recombinant DLL3 antigen (Homo sapiens, UniProt Q9NYJ7)", "T1 sequence (Q9NYJ7 27-618)": "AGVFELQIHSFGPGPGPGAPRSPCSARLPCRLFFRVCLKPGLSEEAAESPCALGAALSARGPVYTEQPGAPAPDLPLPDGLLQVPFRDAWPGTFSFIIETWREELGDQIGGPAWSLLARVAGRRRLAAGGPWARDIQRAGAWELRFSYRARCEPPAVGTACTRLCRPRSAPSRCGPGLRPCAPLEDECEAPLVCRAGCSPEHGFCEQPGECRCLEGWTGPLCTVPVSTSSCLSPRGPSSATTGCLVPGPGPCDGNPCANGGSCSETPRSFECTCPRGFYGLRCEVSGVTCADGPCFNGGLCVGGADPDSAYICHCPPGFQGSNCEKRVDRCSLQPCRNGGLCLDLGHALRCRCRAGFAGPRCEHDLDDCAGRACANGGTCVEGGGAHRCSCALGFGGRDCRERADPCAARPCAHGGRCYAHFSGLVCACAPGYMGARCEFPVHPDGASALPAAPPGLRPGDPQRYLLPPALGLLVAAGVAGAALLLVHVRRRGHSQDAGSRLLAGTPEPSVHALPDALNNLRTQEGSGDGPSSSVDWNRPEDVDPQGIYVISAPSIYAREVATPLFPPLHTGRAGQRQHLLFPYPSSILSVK", "assay": "ELISA, binding potency to human recombinant DLL3 antigen", "settings": "compared to unconjugated Rovalpituzumab", "description": "The relevant antigen was immobilized on ELISA plate by absorption. The plate was washed (PBS with 0.1% Tween 20) and incubated with blocking buffer (PBS + 3% BSA) for 2 h ± 1 h to reduce unspecific binding. Relevant antibodies and ACCs diluted in assay buffer (PBS with 0.05% Tween 20 + 1.5% BSA). The blocking buffer was discarded, and the antibodies and ACCs and controls were applied in triplicates to the plate according to a plate set-up defined in each protocol. After incubation for 1 h ± 30 min at RT, the plate was washed. A horse radish peroxidase (HRP)-conjugated secondary antibody binding specifically to the primary mAb (anti-human IgG-HRP) was added to the plate. After incubation for 1 hour ± 30 min at RT, the plate was washed. A chromogenic substrate (2,2'-azino-bis (3-ethylbenzothiazoline-6-sulphonic acid) (ABTS)), for HRP leading to the formation of a green color was added to the plate and used for detection. The absorbance of the colored reaction product was measured with an absorbance plate reader, e.g. EnVision 2103 Multilabel Reader from Perkin Elmer, or iMark Microplate Absorbance Reader from Bio-Rad.\nAbsorbance against the log of the antibody concentration was plotted on the GraphPad Prism software.\nThe binding potency of Rovalpituzumab-macropa, Rovalpituzumab-DOTA was compared to unconjugated Rovalpituzumab by using an ELISA assay. […]"}, "[2]": {"molecular_target": "T2, recombinant human DLL3 (Homo sapiens, UniProt Q9NYJ7)", "T2 sequence (Q9NYJ7 27-618)": "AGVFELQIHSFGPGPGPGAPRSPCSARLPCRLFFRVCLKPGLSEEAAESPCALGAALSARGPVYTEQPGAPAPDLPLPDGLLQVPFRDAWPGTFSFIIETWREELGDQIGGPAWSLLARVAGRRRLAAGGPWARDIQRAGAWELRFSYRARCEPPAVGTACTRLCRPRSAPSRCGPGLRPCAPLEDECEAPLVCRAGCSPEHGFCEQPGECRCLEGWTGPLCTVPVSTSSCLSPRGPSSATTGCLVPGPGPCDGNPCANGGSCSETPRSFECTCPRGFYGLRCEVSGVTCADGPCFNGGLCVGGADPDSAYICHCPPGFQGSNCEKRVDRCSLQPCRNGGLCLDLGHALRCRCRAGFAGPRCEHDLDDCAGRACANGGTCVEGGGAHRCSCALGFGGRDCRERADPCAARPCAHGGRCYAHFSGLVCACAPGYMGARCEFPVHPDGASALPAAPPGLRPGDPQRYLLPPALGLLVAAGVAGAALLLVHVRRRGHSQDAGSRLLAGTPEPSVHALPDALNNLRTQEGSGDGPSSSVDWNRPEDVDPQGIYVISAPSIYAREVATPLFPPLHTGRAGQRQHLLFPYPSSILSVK", "assay": "Immunoreactive fraction (IRF), binding to DLL3-coated beads", "settings": "20 kBq/µg", "description": "Shortly after completion of the radiolabeling, the binding was assessed by measuring the fraction of radiolabeled antibody-chelator conjugate bound to relevant antigen coated magnetic beads (Thermo Fisher Scientific). In short, beads were placed in 2 mL Eppendorf tubes in 90 µL buffer (PBS/0.1% Tween 20/1% BSA). The radiolabeled compounds were diluted to 5 Bq/µL in buffer and 50 Bq were added to each bead-containing tube. The binding lasted for 60 min while shaking at 750 rpm at room temperature. After completion of the binding step, magnet (DynaMag-2) was used to separate the beads from […] supernatant. The radio activities in the supernatant and in the beads of each sample were measured using a high purity Germanium detector (Ortec). […] Total binding was defined as [(activity in beads […])/ (total activity)] × 100."}}}
{"molecule": "B1", "values": [{"measurement": "EC50", "setting": "[1]", "result": "increased EC50"}, {"measurement": "max absorbance value", "setting": "[1]", "result": "Slightly lower max absorbance value"}]}
{"molecule": "B2", "values": [{"measurement": "amount of DLL3-coated beads at which the maximum binding was achieved", "setting": "[2]", "result": 10, "unit": "µg"}, {"measurement": "maximum binding (IRF)", "setting": "[2]; 10 µg of DLL3-coated beads", "result": 86, "unit": "%"}]}
